Results on five molecules are retold here after PMC12056058 (Nature Communications, 2025).

One may read the IC50 as the concentration that inhibits the measured activity by half.

The target of data set [1] is T1, Fis1 (mitochondrial fission protein 1), cytosolic domain (Homo sapiens, UniProt Q9Y3D6, T34D).
T1 construct: cytosolic domain, C-terminal HRV 3C site and His6 tag (cut off), codon optimized, E. coli BL21(DE3); first 30 residues disordered in mutant crystals
T1 sequence (Q9Y3D6 1-123 T34D): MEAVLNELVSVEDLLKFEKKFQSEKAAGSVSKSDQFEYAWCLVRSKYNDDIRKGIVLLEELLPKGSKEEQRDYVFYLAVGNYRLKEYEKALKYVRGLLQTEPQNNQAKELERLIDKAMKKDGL
As to the kind of experiment: CPM thiol fluorescence competition. Format: binding. To be noted: read-out: apparent IC50.

Data set [2] deals with the molecule itself. As to the kind of experiment: crystal structure; tag-free Fis1 protein/mutant at 8 mg/ml, sitting drop; data at 100 K, SSRL BL12-2; molecular replacement with PDB 1NZN.

Consider `CN(CCCN1c2ccccc2Sc2ccccc21)C(=O)CCl` [SP11, N-(3-(10H-phenothiazin-10-yl)propyl)-2-chloro-N-methylacetamide], for which the half-maximal inhibitory concentration (IC50) in data set [1] is 9.4 µM.
On to `C=CC(=O)N(C)CCCN1c2ccccc2Sc2ccccc21` [SP22, N-(3-(10H-phenothiazin-10-yl)propyl)-N-methylacrylamide], for which the IC50 in data set [1] stood at 15.4 µM.

B1: Thr34Asp Fis1, cytosolic domain, tag-free (domain or fragment, human)
chain: MEAVLNELVSVEDLLKFEKKFQSEKAAGSVSKSDQFEYAWCLVRSKYNDDIRKGIVLLEELLPKGSKEEQRDYVFYLAVGNYRLKEYEKALKYVRGLLQTEPQNNQAKELERLIDKAMKKDGL
notes: Mitochondrial fission protein 1 (Fis1), human, cytosolic domain; also called T34D; phosphorylation mimic-mutant; source: E. coli BL21 (DE3), purified (Ni-NTA, HRV 3C cleavage, reverse Ni-NTA); not shown: His6, C-terminal, cleaved
As to B1, the binding result in data set [2] is given as “binds”.

B2: Tyr38Glu Fis1, cytosolic domain, tag-free (domain or fragment, human)
chain: MEAVLNELVSVEDLLKFEKKFQSEKAAGSVSKSTQFEEAWCLVRSKYNDDIRKGIVLLEELLPKGSKEEQRDYVFYLAVGNYRLKEYEKALKYVRGLLQTEPQNNQAKELERLIDKAMKKDGL
notes: Mitochondrial fission protein 1 (Fis1), human, cytosolic domain; also called Y38E; phosphorylation mimic-mutant; source: E. coli BL21 (DE3), purified (Ni-NTA, HRV 3C cleavage, reverse Ni-NTA); not shown: His6, C-terminal, cleaved
On to B2, for which the binding result in data set [2] is “binds”.

B3: Thr34Glu Fis1, cytosolic domain, tag-free (domain or fragment, human)
chain: MEAVLNELVSVEDLLKFEKKFQSEKAAGSVSKSEQFEYAWCLVRSKYNDDIRKGIVLLEELLPKGSKEEQRDYVFYLAVGNYRLKEYEKALKYVRGLLQTEPQNNQAKELERLIDKAMKKDGL
notes: Mitochondrial fission protein 1 (Fis1), human, cytosolic domain; also called phosphorylation mimic-mutant; source: E. coli BL21 (DE3), purified (Ni-NTA, HRV 3C cleavage, reverse Ni-NTA); not shown: His6, C-terminal, cleaved
For B3, the binding result in data set [2] is “binds”.
